The record followed here is patent US20200385482A1.

Assay [1] has as its target human C-type lectin domain family 2 member (hCLEC2D) expressed on transfected 300.19 cells (human) (UniProt Q9UHP7). The assay is described as follows: FACS, hCLEC2D 300.19 cells, assay 1, Ab approx 10 ug/ml.
The target is the same in assay [2]. The assay is described as follows: FACS, hCLEC2D 300.19 cells, assay 2, Ab 1 ug/ml. On the technique in general: Flow cytometry measures light scatter and fluorescence of single cells or particles in a stream.
For assay [3] the target is unchanged. The assay is described as follows: FACS, hCLEC2D 300.19 cells, assay 1, Ab 1 ug/ml.
Assay [4] has the same target. The assay is described as follows: FACS, hCLEC2D 300.19 cells, assay 2, Ab 0.01 ug/ml.
The target is the same in assay [5]. The assay is described as follows: FACS, hCLEC2D 300.19 cells, assay 2, Ab approx 10 ug/ml.
Assay [6] has the same target. The assay is described as follows: FACS, hCLEC2D 300.19 cells, assay 2, Ab 0.1 ug/ml.
Assay [7] shares this target. The assay is described as follows: FACS, hCLEC2D 300.19 cells, assay 1, Ab 0.1 ug/ml.
The target is the same in assay [8]. The assay is described as follows: FACS, hCLEC2D 300.19 cells, assay 1, Ab 0.01 ug/ml.

Sequence of human C-type lectin domain family 2 member (hCLEC2D) expressed on transfected 300.19 cells (human) (Q9UHP7 whole entry, the tested form may be a part): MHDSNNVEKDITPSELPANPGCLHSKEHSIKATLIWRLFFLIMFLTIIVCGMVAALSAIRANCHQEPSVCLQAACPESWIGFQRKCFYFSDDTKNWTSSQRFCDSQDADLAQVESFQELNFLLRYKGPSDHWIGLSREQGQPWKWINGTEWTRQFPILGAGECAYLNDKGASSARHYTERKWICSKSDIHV

B1: Ab-52 (antibody, V domains shown)
VH: QVQLQESGGGVVQPGRSLRLSCSASGFTFSRHGMHWVRQAPGKGLEWVAVISHDGSVKYYADSMKGRFSISRDNSNNTLYLQMDSLRADDTAVYYCARGLSYQVSGWFDPWGQGTLVTVSS
VL: NFMLTQPHSVSESPGKTVTISCTRSSGSIASNYVQWYQQRPGSAPTTVIYEDNQRPSGVPDRFSGSIDSSSNSASLTISGLKTEDEADYYCQSYDSTTPSVFGGGTKLTVL
Turning to B1, the Cells PE-A Mean worked out at 3140 MFI in assay [1]; 1100 MFI in assay [2]; 1100 MFI in assay [3]; 166 MFI in assay [4]; 3140 MFI in assay [5]; 298 MFI in assay [6]. The Cells PE-A Mean was 298 MFI in assay [7] and 166 MFI in assay [8].

B2: Ab-31 (antibody, V domains shown)
VH: QVQLVQSGAEVKKPGATVKVSCKVFGDTFRGLYIHWVRQAPGQGLEWMGGIIPIFGTANYAQKFQGRVTITTDESTSTAYMELSSLRSEDTAVYYCASGLRWGIWGWFDPWGQGTLVTVSS
VL: EIVLTQSPATLSLSPGERATLSCRASQSIGNSLAWYQQKPGQAPRLLMYGASSRATGIPDRFSGSGAGTDFTLTISSLEPEDFATYYCQQHTIPTFSFGPGTKVEVK
Regarding B2, the Cells PE-A Mean in assay [1] was found to be 2950 MFI; in assay [2] it was 870 MFI; in assay [3], 870 MFI; in assay [4], 153 MFI; in assay [5], 2950 MFI; in assay [6] it was 360 MFI. Besides, the Cells PE-A Mean in assay [7] was 360 MFI; in assay [8], 153 MFI.

B3: Ab-16 (antibody, V domains shown)
VH: EVQLVQSGGGVVQPGRSLRLSCAASGFTFSSYALSWVRQAPGKGLEWVSAISGGGGSTYYADSVKGRFTISRDNSKNTLYLQMNSLRAEDTAVYYCAKDVFPETFSMNYGMDVWGQGTLVTVSS
VL: SSELTQDPAVSVALGQTVRITCQGDSLRSYYASWYQQKPGQAPVLVIYGKNNRPSGIPDRFSGSSSGNTASLTITGAQAEDEADYYCNSRDSSGNHYVFGTGTKVTVL
Consider B3, for which the Cells PE-A Mean stood at 2370 MFI in assay [1]; 898 MFI in assay [2]; 898 MFI in assay [3]; 154 MFI in assay [4]; 2370 MFI in assay [5]; 294 MFI in assay [6]. Moreover, the Cells PE-A Mean in assay [7] turned out to be 294 MFI; in assay [8] it was 154 MFI.
